Here are results for 19 sequences from a protein production outcome set (Wang et al. 2014).

The data set is described as follows: label from the status in PepcDB records.
Take “MTIGPLALVISLSQQMCVYLVVAYLLSKTPLFIPLVHVTIRLPHKAACYAIFSLFCIMGTYFGLRIDDSIANTRAIGAVLGGMLGGPSVGLAVGLTGGLHRYSMGGFTALACAISTTAEGLIGGLVHRYLVSRGQTGKLFQPLVVGLVTLFAEVCQMLIIILVARPAVNAVHLVETIALPMLVANSVGAAMFMTILLDRRTMFETQSSVFSAKALKIAARAEGALRSGFNRENSMRVARIIYEETGVGAVAITDRDKILAFIGIGDDHHKPGMAVTSLQTLESIRENRVMYADGNEVAYQCSISPTCPLGAALVIPLVDEGEQVIGTIKLYEPKTRLFSTINRTLGEGVARLLSTQILAGRYEQQRQLLAQSEIKLLHAQVNPHFLFNALNTLSAVIRLDPDHARHLVQSLSTFFRKNLKRTSEQVTLNDEVEQVSAYLEIELARFGDRLSVDFNVPADLGTATLPTFSLQPLVENAIKHGTAQLLGDGRIGVSAERQGGDLVVRVEDNAGLYERRPGGDGLGMNLVDRRIRARYGQGYGLSVECERDVVTRVILRVPFDPSPAGVASPAFEKVGP”: the protein production entry is “failed”. The entry for “MTIHWCGTGLSAIPGLRRLIEAGHALTVWNRTVEKARAELGDLTDDIRAFDIDALGAVLAKGDVVVSMLPGDWHVPLAELAIAKGTHFVSSSYIAPEMRALDERAREAGVSLVNEIGLDPGIDHLMAHELVADYRASDAFDAQNHLSFISYCGGIPKHPNPFRYKFSWSPLGVLKALRSPSRSIRDYAPLDVARPWDAISSYTAPLPTPESFEVYPNRDSLPFMGQYHFKEHWPVKEFVRGTLRLNGWADAWGDVFREIETLSGPEGDARLKEMSDQFWAENAYDQGEPDRVVLCVGLKAEKDGREVWHKSYVMDAWGDARGTAMARLVSIPVSLAVEAVLNREIPAGVHAASSDPKLLARWMAEVATLAQHLQIVDHTA” is “failed”; for “MTIKEFIKKSRLKTWDVIIIAILVLGSFLPLVVFAMQNRGQEAATYQAVLKVDNKVIKVFDLKKDGPHYTYKYEAKDGDYNLIEVDGDRIRVKEANCADLVDVRRGWISKPGETPIACLPHNLFITVEASDGSEDGSLIY” it is “failed”. As for “MTIKGRAFPEGFLWGGAVAAHQLEGGYKEGGKGLSTADIMTLGTNERPREITDGVVAGKYYPNHQAIDFYHRYPEDIELFAEMGFKCFRTSIAWTRIFPNGDESEPNEAGLQFYDDLFDECLKNGIQPVVTLAHFEMPYHLVKQYGGWRNRKLIQFYLNFAKVCFERYRDKVTYWMTFNEINNQTNFESDGAMLTDSGIIHQPGENRERWMYQAAHYELVASAAAVQLGHQINPDFQIGCMIAMCPIYPLTAAPADVLFAQRAMQTRFYFADVHCNGTYPQWLRNRFESEHFNLDITAEDLKILQAGTVDYIGFSYYMSFTVKDTGKLAYNEEHDLVKNPYVKASDWGWQVDPVGLRYAMNWFTDRYHLPLFIVENGLGAIDKKTADNQIHDDYRIDYLTDHLRQIKLAVLEDGVDLIGYTPWGCIDLVAASTGQMSKRYGFIYVDENDDGSGSLKRYKKDSFTWFQHVIATNGAEIE”, the protein production result was “not failed”. As to “MTIKRIFCDMDGTLLNSEGQVSKSNATLIREAAIPVTLVSARAPMEMKDAVDALQLGGVQVAFNGGLIYRIGDNNQVLPIHTQIIKKSTVKQLLRGIRFHFPQVSLSYYDLNNWYCDKIDEGIRYEHSLTQQCPTFIHNEDQFLEGHTNTFKIMMITFDEANMLELEKYLQSLELPEITIQRSGKAYLEITHLLAKKSKGIAYILQKEQLAREETAAFGDGHNDLPMLEMVGYPIVMDNAFDDIKAIAYQLTKSNDEDGVGYGIQKFLK”, the protein production result is given as “failed”. For “MTIKSDKWIRRMAQEHGMIEPFVERQVRGADDSRVISYGVSSYGYDVRCAAEFKVFTNIHSAVVDPKNFDEKSFVDINSDVCIIPPNSFALARTVEYFRIPRDVLTICLGKSTYARCGIIVNVTPLEPEWEGHVTLEFSNTTNLPAKIYANEGVAQMLFLQSDEACEVSYKDRGGKYQGQR” the value was “not failed”; for “MTINPRDYDLDELRKMARQRGNGMGDEDVPDPTDLDMGLDDADEEVLAGSSFRSGLYRELLPFLSGDAQEKPYLEALPETYAAEFVVFEWLEFLLMHSGYKGADEALDYYRSIDWLTEDVQDDLSDYLLGIDESATNDDNELSVDDHMLSLVYIAKLTAMT”, “failed”; for “MTIQQWLFSFKGRIGRRDFWIWIGLWFAGMLVLFSLAGKNLLDIQTAAFCLVCLLWPTAAVTVKRLHDRGRSGAWAFLMIVAWMLLAGNWAILPGVWQWAVGRFVPTLILVMMLIDLGAFVGTQGENKYGKDTQDVKYKADNKSSN”, “failed”. For “MTIRRLTPTPRAVDWGLFGAVATLLATGVATIFAGIPSSAWIIDLHALSGVVLTLLLPVKLRRVFHRVAPSRLTGTRVLSVGLAAVTLGALGTGVWWIFGGTLDLGPWGLFHLHVALGLLVPPLLLVHLRARFYSPAQATCGGRRDVLRYAGLVTAGALLWRVQGPVNDALDTAGADRRYTGSREEGTDDGNRFPVTSWVADDPDPVDAADWSLSVAGRVAHEASYVAGDLSPDATESAVLDCTSGWYSGHEWQGVRVGDLLDAADPDDAAAWVQFRSITGYRWSLPLSEARDAVLATHVDGERLAHGHGYPLRLVAPGRRGFQWVKWVESVRVSKRRELGEWLAIFVSGL” the value was “failed”. “MTISADPDRDWKNRISAQALRQIQELDLALDPNSFELWYTFFSGRHKALTEAVNALLAATGRPSAGDISGLYEQFLYPTKAVTRIHAIGALVHSQSNALIDVIEEASDATHGYETRLSSAAPRLALGRMEDGLQTIVDELLTWTMDIQTANAVLVDRLRSAADQVRKLQDQLDQVRLESMTDPLTEVGNRKYFENQLSLHVASDDSGPLALLIVDLDNFKQFNDRHGHVVGDDVLRLAASTIKHNCRRDDVVCRYGGDEFAIILPRTPLREALLLGEAIRAAIAARELHRRSTHESLGRLLISIGAAEFRPGETADDFVERADHWMYAAKQARRDRTRPGPDAAARDPGERRPDILWHETYACGEPTIDAQHRELFDLANVILGPEIEMLEPARLSELVELLLTRVAEHFQYEQAVLEASGYDECGLHRMEHDHLLIRARQVSEAVVSGHQSLGELRAFLVNSVILGHMLKDDRRFFPLFDRQASSATQSGAAPVHRERRRLSL”: the protein production result is “failed”.

With “MTISNFVNYIRSPPVNGFVCCTRGSSIAVCNPTTRQIVKLPDVVTNENYMHVRLGYDPVEDQYKVLLVVMMFDGYRTDTDQEYFVFTLSSQQKEWRKIENTTGETYHMVYGGICIDGAIYYGVSQSIIVKFDVRSEKMEFIQAHEVSHIAPPYYSTLLYLSSDMIRMENHSNEEVRFWILEDAEKLRVSHMACDVWDDSLGKYVRAKEEIHTGKLMGIYPRLQSSKYKPFSVCVYHFNKVGLKKTEIQGSNDDDIRFRCGIGMRTHEILILEVTLRILGSCEEFSWFH”, the protein production entry is “not failed”. The entry for “MTISWFQAALLGLFACLSSMPGLGGTTIGNYTLGRPLVGGLVCGLILGDIKTGIVCGVAMQLVYIALVTPGGTVSADVRAVSYIGIPLAMVAIHSQGLSATSSDAANLAKSMGTLVGTIGTVLFYGTATMNLVWQHIGWQAVEKREFKRLYVVDWGLPWISHIVFSFIPTLIMCKLGADAVTALKNALPMDGIPMKTLFTVGSLLPCVGIAILLKQIVEKAVDFIPFFVGFTLAASLGLNLVSCAVISLIFAVLFYELETIKNMRATASAEASDFDDDDEEDI” is “failed”; for “MTKAIPWKINWQTMAFEYIGPQIEALLGWPQGSWKSVEDWATRMHPEDQEWVVNFCVKQSECGVDHEADYRALHRDGHYVWIRDVVHVVRDDSGEVEALIGFMFDISLEHHHHHH” it is “not failed”. The entry for “MTKAREFLGTGWKFPVAAGADGAMVLSSAEEDIAESIRIILGTARGERVMRPDFGCGIHDRVFSVINTTTLGLIENEVKEALILWEPRIELLSVTASPREAAEGRLLIDIEYRVRSTNTRFNLVYPFYLKESA” is “not failed”.

For “MTKFKGIIYASLGAAFFGISSIIAGLLFNRCSIEPGWLVTTRMLFSGLLLLAWLAITKHNIFSVWSSVKSSLRIVAFGIFGVLFAQSSFLLSVYYGNAAIATILQSLGPSIIIIILAIKSKAIPRRLDIIAIFLSLIGVFLLVTNGNIGELSFSASALVWGLLSALGVCAYTLIPCPLIKEHPPLSLVAWALLIGGVISNFLHPVTNLPKNFDQTDLLLVSLIVVVGTLLAYSLYINSLKYTEPHIVGMLGMLEPVTAILISTLFLGVSFLGFQQLGIFVVFLSLFLINFPAKKK”, the protein production entry was “failed”.

With “MTKFSIIIPTRERVGTLLYTLPACLRVERDDIEFVVCDNYSQDGTADYLKSIQDHRVRIYRTNQRLSMKDNFEHGLARAQGEYICFMGDDDLIIPSLFPLVEKELENVETVCWNRWVYYWPDSYESPNMLIVNNNNFSVILSSSRALDFALRYFLNYQNLPSLYNSFTHRKIVQRVINYNCLNLETEKFYPQDAISPDVFSALQILKFTNSFAHIGLPLTVSGISSSSNGAGVRNNSEESKKFIQELKVEKLSDLLHVSLSALLTQKISYYITNLSDYISFIINYIPETLQEDIFLDLIASGCRTLFDIGDIDADTATQFMAGYDISPWVVNGRLNLMDQGFYTLFRVPMFNRVVINGDEHSLSNSLNASVFLDDYFSSLIY”, the protein production result is “failed”.

As for “MTKGSRKSRRRQQAPTKARPEQGRSAPAQRPAPTFRLRTAALLAIGSGALFFLLASGLSWFKTSEISSPPTREAELSFVGSQACSGCHQAETRLWQSSQHRHAMDHATDTSVRGDFNDAAFEYAGTRSRFFRKDRKFLIETDGPDGKLATFEVKYAFGVDPLQQYLIEFPDGRIQALSIAWDTRPKDQGGQRWFHLYPDAAVTSSDPLHWTRLNQNWNFMCAECHSTNVHKNYDAARDRFATSFSEISVGCEACHGAGSRHVSWAQQKPAARGPDNGLLVRFDERSGITWSADAETMTPKRSAPPATLRKEVEVCGRCHARRGQFSEDWRPGKSLSETHRVSLLDRQSFHADGQMRDDEETYNYASFKQSKMFAKGVTCSDCHDPHSAALKAPGDGVCAQCHAPAKYEAAAHRQHANVSPPPGCASCHMPERRYMVVDRRHDHGFRIPRPDLSVQLGTPNACNDCHRDKPAAWAARQVETWFGPQRLGFQAYARAFHAAWSEAADAQALLSAVVANDAPGIVRAGALAELPAPDADLIRRALSDPDPLVRLGALDALEGIPADQLWTLASAQLTDPVRGVRIRAAELLASVPPSRQPAADRNKFTQAAAEFVAAQKLNADRPDARAALGNFLARQAGAAEAEAEYRAALRLDPSFPPAAINLSDLYRQLGRDSDGERILRETLTKSGQNASLHHALGLVLVREKRADEALGELRQAAELDPGQPRYAYVYAVGLHSSGRRDDALAVLRTSLQVHPNDRESVSAALALSREKGDSASALGYAEQLSRLMPGNREIEDLIKQLKQ”, the protein production result is “failed”. Turning to “MTKIIPVASGKGGVGKTSFVANVGYKLSSLGKTVILVDLDLGGSNLHTCLGVKNKGVGIGSFINKKSKSFSDLVCKTSYDKLYLIPGDALYTGTANLPFSIKKKIIESIQKDLIADFIFLDLGSGTSYNTIDFYLASYSGVIVTIPETPSILNAYSFLKNALYRLLYLGFPQKSPERDYIGNFFKDKIEGTNLGFKDLVVGIELISLSSSLKVKRMMNNFYPRVVLNRIETSEEIAMCENLINVVKNNINIPIEFIGFVPFAKSFREAINNRVPFIDFEKNSKLNKYFEFIAGNLIKSP”, the protein production result is “failed”.

Turning to “MTKIYFAGPLFSQADLRYNAYLVEQIRQLDKTIDLYLPQENAAINDKSAYADSKMIALADTENVLASDLLVALLDGPTIDAGVASEIGVAYAKGIPVVALYTDSRQQGADNHQKLDALNEIAENQFHYLNLYTVGLIKLNGRVVSSEEDLLEEIKQRLS”, the protein production entry is “not failed”.
